Reference: the DeepSol protein solubility set

Test: soluble on expression in E. coli; label from the status in PepcDB or PDB records

Sequence	soluble on expression in E. coli
MICTPKVGLNNQLTKVQFFMTKYNFLFKQQVIEFYLQNDKNSSLTRRHFQLAETTLERWINQFNHSGINGLALLGKKRNYSPEFKLNVIQAVKNGKFSAEAACLHFGIANSGVVSQWLQAFEKQGINGLIPKPKGRPTMKLQYPKMPPKPKTREEELELENLRLRAENAILKKLQELNQQKMQKKPLSLEHHHHHH	not soluble
MIDAVATDSSSTPSNEKPRRARRTRMTGAERRQQLLEIGRTLFAAKGFEGTSVEEIAAKAGVSKPVVYEHFGGKEGLYAVVVDREMRRLLDMVTGSLTAGHPRELCEQAAFALLDYIEEYTDGFRILVRDSPIPQSTGTFASLISDIATQVEDILGREFKNRGFDAKLAPLYAQALVGMVALTGQWWLDVRRPKKAEVAAHLVNLAWHGLDGLEPKPRLIGHRKS	not soluble
MIDCAIIGGGPAGLSAGLYATRGGVKNAVLFEKGMPGGQITGSSEIENYPGVKEVVSGLDFMQPWQEQCFRFGLKHEMTAVQRVSKKDSHFVILAEDGKTFEAKSVIIATGGSPKRTGIKGESEYWGKGVSTCATCDGFFYKNKEVAVLGGGDTAVEEAIYLANICKKVYLIHRRDGFRCAPITLEHAKNNDKIEFLTPYVVEEIKGDASGVSSLSIKNTATNEKRELVVPGFFIFVGYDVNNAVLKQEDNSMLCKCDEYGSIVVDFSMKTNVQGLFAAGDIRIFAPKQVVCAASDGATAALSVISYLEHH	soluble
MIDEPTGLYNRLRLQEDVSLRLQRDGALTVIAADLLPLALLNTIIRTLGYPFSNDLMLEARDRIRAELPDFTLYKISPTRFGLLLPRQQQEETESVCLRLLRAFESPVVCRGIPIKANVGLGVLPLADDTLDGDQDWLRLVVSAADDARDRGVGWARYNPPLDQAQQRLEHHHHHH	soluble
MIDFACKEFKVEDVIKCALNLTKADLNVMKSFLNEPDRWIDTDALSKSLKLDVSTVQRSVKKLHEKEILQRSQQNLDGGGYVYIYKIYSKNQIRNIIQKIVQSWADRLGQELKEWENGGE	not soluble
MIDPREIAISSRLEKVRNVIPVVSGKGGVGKSLISTTLALLLREKGYKVGLLDLDFHGASDHVILGFEPKEFPEEDKGVVPPEVNGVKFMTIVYYTENKPTPLRGKEVSDALIELLTITRWDELDYLVIDMPPGLGDPFLDVLRFLKRGKFIVVATPSKLALNVVEKLIQLLKEENREILGIIENMKLDEEEDVKNLAKRHGINYLLGVPFYRDLEEKIGKVEELLKTPFADKLREVIKVLV	soluble
MIDTFERTGPLMEASSYPAWAQQLINDCSPAKARVVEHELYQQMRDAKLSPQIMRQYLIGGWPVVEQFAVYMAKNLTKTRFGRHPGEDMARRWLMRNIRVELNHADYWVNWCAAHDVTLEDLHDQRVAPELHALSHWCWQTSSSDSLAVAMAATNYAIEGATGEWSAVVCSTGVYAEAFAEETRKKSMKWLKMHAQYDDAHPWEALEIICTLVGNKPSLQLQAELRQAVTKSYDYMYLFLERCIQLDKVKSPRGRVAALEM	soluble
MIDTNLLRVTVCDEGELEKSTTHFIGSRKIEPEQWITWASECKYLPESDAVALCATLIDRLSLEANVVPVSSPVTICGDIHGQFYDLLELFKTGGTVPNTKYVFMGDYVDRGHYSLETVTLLFCLLLKYPNQITLLRGNHESRRISNVYGFYDECQNKYGHGNVHKWFCKVFDVLPIGALIDESVLCVHGGLSPDIRTIDSLMLLDRAQEVPNKGPLCDIMWSDPDDDVEDWVISQRGAGFVFGAKVTEEFLMNNDLSLLCRSHQLVDEGFKYMFNEKLATVWSAPNYCYRCGNAAAVFEIDGNNRSTKYFNAVPDGSREKPDRVVAPYFL	not soluble
MIEMKYILARATDEEIQKRGECGGAVTAIFKYMLDREIVDGVLTLERGDDIYDGIPVLLEDSDEIVSTCGSLHCAPTMFGDLISRYLNDMRLAVAVKPCDAMAIKELEKRHQIDPQRVYMIGLNCGGTLSPVSAREMIETFYEIDPDDVVREEIDKGKFIVELKDGSHKEISIDYLEEEGFGRRENCQRCELMVPRNADIACGNWGAEEGWTFIEVNTDRGEEIIEGARREGYLEVKEPPMKMIEIREKIENAMIKMARKFQDKYLEDEYPSLDDWDEYWKRCINCFACRDLCPICFCRECELEKDYLLESDEKAPDPLTFQGVRLSHMGFSCINCGQCEDVCPMDIPLARIYHRIQRKYRDRTGFTAGVSEELPPMYSGEKDLEHHHHHH	soluble
MIEMTPDSSVYKALLESTKAIPWKINWQTMAFEYIGPQIEALLGWPQGSWKSVEDWATRMHPEDQEWVVNFCVKQSECGVDHEADYRALHRDGHYVWIRDVVHVVRDDSGEVEALIGFMFDISERKKTLEHHHHHH	soluble
MIEPIWIDEQVALAIHERLISLHSGASGVRDKELLKSALARPLNLLAYDQQADVIHLAAAYTAGILQNHPFVDRNKRTGFVVGVLFLELNGYRFTAAEEDSAQAVIALAAGSLDEARFKLFLADNSIPV	not soluble
MIETITQSQETAILESFLELVKSPYGNFASIGKLSHVLNDPDTLQKVVAVLSLTPQGKQAFEDRPMLGKIDLEQLHQLPNYTLGYMYADHMIRNQLTPPPVNENVNHPFMFLAAHLGETHDIWHVVTGCDTDKPGEVKLEAFYTAQLIPDRLFLALLAKNLLKTAMYEVELCEQILDGLTQGWMMGKRAKPLFGIEWNKLWETPLEELQTSLNIVPILEHHHHHH	soluble
MIFAYNKEQVGDVLLVILEDTKDIKRSVERKGKVARVTADETGKTLAWNIFEASSLIDIEGNGQVFLSDQDVAILNEELAKEGFEERLENTQGPVFVVGQIDEMVPHPDSDHLNICQVNIGDKKVQIVAGAPNASPGLKTIVALPGAMMPSGALIFPGKLRGEDSYGMMCSPRELALPNAPQKRGIIELDDSAVVGEAFDPAKHWKRLEHHHHHH	soluble
MIGAQVDMHFTKGYPSVDLSDPWNKNVLLEVVRMAIPLMKHPNYYRINGKPAIFIWNEAIFYNRAEAYREIKEMVKRDLGVEPYIIADVLPRIMADRKVIPGTPEGEWYIRNLLLRKNDGGDKFIDAYTSWIGFYSVQGETALTPREIEMYSKLYREHVEAWSSYTNGRNKCFIPTVSPGFDRTFDKSFNQQFPIPRDPKRFAEMLKIALDSLGNCKEIRIDTWNDFYEGTFIEPSVSDGFTYLEVLEEFIKELKENLEHHHHHH	not soluble
MIGDGKLLASAAWDAQSLNELKAKAGQDPAANIRPVARQVEGMFVQMMLKSMREALPKDGLFSSDQTRLYTSMYDQQIAQQMTAGKGLGLADMMVKQMTSGQTMPADDAPQVPLKFSLETVNSYQNQALTQLVRKAIPKTPDSSDAPLSGDSKDFLARLSLPARLASEQSGVPHHLILAQAALESGWGQRQILRENGEPSYNVFGVKATASWKGPVTEITTTEYENGEAKKVKAKFRVYSSYLEALSDYVALLTRNPRYAAVTTAATAEQGAVALQNAGYATDPNYARKLTSMIQQLKAMSEKVSKTYSANLDNLF	not soluble
MIGIVAAFEKVKIPEMGKSFGTGWLPPLPSLKDYTEESAQIPEMAEKLGIPTSRKETKTLELPVSIDFRNWCSPIEDQMDLGSCTAHAGVGVVEYFERRAFGKHIDGSRFFVYKTTRNLMGVKGDTGAWLRNTMGALALCGVPPEKYFPYTSRKTPGPDGEPTFDDEPSSFVYSLADNFEALNYFCHDPQGMNLPPEDVILSVKKYLAAGIPSMFGFYGFPSFKDTDVKGGIPFPGPDERSIWGHAVVAVGYDDNMKIRNTLSNKETTGAFLIRNSWGTAWGDKGYGWLPYEYALNKLEHHHHHH	not soluble
MIGKLKKGSSFGGCIRYVTGKDEAKIIASDGVLLGTNAEITQSFELQRQLNPRIKKPVGHIALSFKPEDKPRLTDEFMTKIAIEYMQMMGITKTQFIIIRHHNADNPHCHIVYNRINNESKLISDRNDYRRNEQVTKALKSKYGLTYGTDKSNTNTRKLRNAERAKYEIHNAVKDALKMADSWEKLRSELAKRGVHLEFVYKDKAQTKVQGIRFCKDGYSFKGTQICREYSFGKLNAKFEGTENHVSTRANSAQQYEQGCRKNEQVPFMSENCQDPWDGISSIGLFASANAQTFESFPEDESAKKKKKKRRRGFSL	not soluble
MIGLLFLFAACQEKVTSPAKVDTLPSIFPDYVGVTIPSTIAPLNFRVTDDGVEAVDVVIAGTKGKPVRLNGRSVDIPAKQWHELLESNKGDSIEVKVSVRQGKKWKEYRPFPIYVSPFPIDYGLVYRLLAPGYEVYSKMGIYERELSTFRQTPLFENTQVTAACINCHAFNRTEPTPSSVHVRGGHGATVIDTGDRLEFLDTKADGQLSACVYPYWHPSGEYIAYSVNKTNQAFHLGGKKPIEVFDQASDVVVYHPRSHRILTTPLLSTASFETFPAFSPDGRTLYFCSAEQKEMPVRYKDVKYSLCSIAFHPEDGTFGDRIDTLISARTLDKSISFPKPSFDGKYLMFTLSDYGNFSIWHKEADLWLLDLKTGTYRNLEEVNSDDTESYHNWSSNSHWFVFSSRRGDGLYTRLYISSVDGQGRIGKPFLLPQQDPYTFYDQLIYSYNVPEFVSAPVQWDKREMAKGLMSKERVKVKLEHHHHHH	not soluble
MIGMAEVKLINIWKRFGDVTAVKDLSLEIKDGEFLVLLGPSGCGKTTTLRMIAGLEEPTRGQIYIEDNLVADPEKGVFVPPKERDVAMVFQSYALYPHMTVYDNIAFPLKLRKVPKQEIDKRVREVAEMLGLTELLNRKPRELSGGQRQRVALGRAIIRRPKVFLMDEPLSNLDAKLRVKMRAELKKLQRQLGVTTIYVTHDQVEAMTMGDRIAVMNKGELQQVGTPDEVYYKPVNTFVAGFIGSPPMNFLDATITDDGFLDFGEFKLKLLQDQFEVLEEENMVGKEVIFGIRPEDVHDASFTHIDVPEENTVKATVDIIENLGGEKIVHLRRGNISFTAKFPKESKVREGDEVSVVFDMKKIHIFRKDTEKAIF	soluble
MIGRERMTVASQRLIAERTYELTLSGRLVQEMRQPGQFVHVKVAASADPLLRRPLSLCHIDHKQGQCTIIYRQEGKGTALLAQKQPGDTVDVLGPLGNGFPLEAAPADSRALLVGGGIGVPPLYELAKQLTKRGVKVVSVLGFQTKAAVFYEEEFAAFGETHVATDDGSHGTAGRVTDVIEARSLEFDVLYACGPKPMLRALAERFPNRPVYLSLEERMGCGVGACFACVCHVPGSETAYKKVCSDGPVFRAGEVVL	soluble
MIHPARPLRGQAALEARDPNARLEEAVGLAVALDLNVVEALVAPLRVVTPATLFGKGKVEEFAAICEVEHIDVAVFDDQLTPIQQRNLEKALKVKVVDRTGLILEIFARRARTREGRLQVELARLDYERSRLVRTWTHLERQRGGTGSTGGPGETQIEIDRRLIAGTILKLKKELEEVRRTRTLHRSARKKVPYPTVALVGYTNAGKSTLFNRLTEAEVLAKDMLFATLDPTLRTVKLPDGRPAIMSDTVGFISDLPHELVEAFRATLEEVQEADVVLHVRDVANPDSEAQARDVETVLAELGVTLDEGKTVVEVWNKVDLLSEDDREIVEGQARRNDASAVSAVTGEGCEALLRRIAGLIDDSPPVEVSLAAQDGQALAWIYRNGRVLSRYDGPGGEVTLVARLDAQALGRFERQFPGAQVSAAVDLEHHHHHH	soluble
MIHTYEEAIGWIHSRLKFGIKPGLERMRWMLEELGNPERHIKCVHLAGTNGKGSTLTYMRYMLEDAKYKVGTFTSPYIETFNERISVNGTPIADEEITELVKMVKPVVEKLDETDLGEATEFEIITVMAICYFGKVNFCDVVLFETGLGGRFDSTNVIHPVLTIITNIGHDHMHILGNTLGEIAYEKAGIIKSGVPVITGVQDEEALQVIQKVAKENRANLYEMGNHFTALHKQSSENGEQFDFTCPFASFEDVRIAMKGSHQVGNAALALMAVMYVKTYLSFLIEEEEIRTGLQEAYWVGRFEKLQSNPDIIIDGAHNPEGIESLVKTVESHYKDKNVIVLFTALGDKQLHNMVGQLETIADEIIFTTFAFDRAISAGELASYAKKESKLVFENWKEAIDTKVEMIGENDVFIITGSLYFISEVRKYIREKN	not soluble
